From the DeepSol protein solubility set

Assay: soluble on expression in E. coli; label from the status in PepcDB or PDB records

Sequence | soluble on expression in E. coli
MEQQRSFQTETGGHLYLVPTPIGNLDDMTFRAVKTLTAVDLIAAEDTRNTQKLLNHFEITTKQISFHEHNTQERIPQLIAKLKQGMQIAQVSDAGMPSISDPGHELVNACIDAHIPVVPLPGANAGLTALIASGLAPQPFYFYGFLDRKPKDRKAEIAGLAQRPETLIFYEAPHRLKKTLQNLAAGFGDERPAVLCRELTKRYEEFLRGSLAELANWAATDTVRGEFVVLVGGNPAPTTAATTAVDLSEPIDVQVDRLIAAGEKPNDAIKEVAKLRGAKKQEIYRQYHHLDEE | soluble
EDGYDMWLRYQPIADQTLLKTYQKQIRHLHVAGDSPTINAAAAELQRGLSGLLNKPIVARDEKLKDYSLVIGTPDNSPLIASLNLGERLQALGAEGYLLEQTRINKRHVVIVAANSDVGVLYGSFHLLRLIQTQHALEKLSLSSAPRLQHRVVNHWDNLNRVVERGYAGLSLWDWGSLPNYLAPRYTDYARINASLGINGTVINNVNADPRVLSDQFLQKIAALADAFRPYGIKMYLSINFNSPRAFGDVDTADPLDPRVQQWWKTRAQKIYSYIPDFGGFLVKADSEGQPGPQGYGRDHAEGANMLAAALKPFGGVVFWRAFVYHPDIEDRFRGAYDEFMPLDGKFADNVILQIKNGPIDFQPREPFSALFAGMSRTNMMMEFQITQEYFGFATHLAYQGPLFEESLKTETHARGEGSTIGNILEGKVFKTRHTGMAGVINPGTDRNWTGHPFVQSSWYAFGRMAWDHQISAATAADEWLRMTFSNQPAFIEPVKQMMLVSREAGVNYRSPLGLTHLYSQGDHYGPAPWTDDLPRADWTAVYYHRASKTGIGFNRTKTGSNALAQYPEPIAKAWGDLNSVPEDLILWFHHLSWDHRMQSGRNLWQELVHKYYQGVEQVRAMQRTWDQQEAYVDAARFAQVKALLQVQEREAVRWRNSCVLYFQSVAGRPIPANYEQPEHDLEYYKMLARTTYVPEPWHPASSSRVLK | soluble
MGSDKIHHHHHHMLQLSEFEPEVLYAFPFRNEHPGTYVYHQHDFLELSIMLEGYSDYNVEGQWRRVVAGQALLFNPGIHHQETQPPHTQSLQLHIGFRHIALPGQVPNHLPFKDALISLDDYRAEFMANAQRIVAESQRPTAFGHALLIQAMVIEQLCWLLRSLPENSVSNDYTELHQGNVSRDQQALVNAATYYLDVHYNEDLTLGTVAASLHVSAAYLSRTFKAIQGETPISYLTRLRMQRAKQLLMQEAITVRQVAHAVGYQDPYYFSKVFKRYFGAAPTLIER | not soluble
MSLGIPPNEAKTLGTYVPGDITLVDSYGNEFQLKNLKGKPIILSPIYTHCRAACPLITKSLLKVIPKLGTPGKDFWVITFTFDPKDTLEDIKRFQKEYGIDGKGWKVVKAKTSEDLFKLLDAIDFRFMTAGNDFIHPNVVVVLSPELQIKDYIYGVNYNYLEFVNALRLARGEGHHHHHH | soluble
MSLSQNSESGNYRKYTSRNPLMGIVVSGFMKDLSETIAPLEEVGSIIDIGCGEGFIINCLNRKDITGVDVSKKALNIAKQKNPGCNFCTGSIYDLSFKKSSFDLVIATEVLEHLENPERALREIKRISKKYCIFSVPNEPYFRTMNFLRGKNLTRLGNDIEHLQNWSTKEFVKLVGRHFNVVEVKRPFPWTMVLCEKEGHHHHHH | not soluble
AHHHHHHGSRPKVGVLLKMKREALEELEKYAEVEVIPYPSEEELKNKIHEFDGIIVSPVTKITKDVLEKAERLKVISCHSAGYDHIDVEEATRKGIYVTKVSGLLSEAVAEFAVGLLINLMRKIHYADKLIRRGEWESHVKIWTGFKGIESLYGKKVGILGMGAIGKAIARRLIPFGVELYYWSRHRKVDVESELHATYMDIDELLEKSDIVILALPLTKDTYHIINEERVKKLEGKYLVNIGRGALVDERAITEAIKQGKLKGYATDVFENEPVREHELFKYEWETVLTPHYAGLAVEAQEDVGFRAVENLISIFRGIVPEDLVNKEVLKIRPIESVKML | not soluble
MLLRFIIGLSSVLLVTGLFNPLLPTLGDYLLTDQQVQKYFSVAGPSNLAIGTCNSVPFASAQAGFASSVGLAPTTTWREANILTNATIGMIDQGMDQLAAVCQARQQFVQTLGAAYDTCTDRFYLISLGNTDWWNVMQYTHLMKHLEFICSTGFDVYQSNIDCIRKGETTDGNQYRACFYKFNATVNANPNNFCGATETFIGCIKDFFDTECNLYVGWMQCELERIGFAYDCYGLSC | not soluble
MEVHAADQYLVAPGEADLLEVHARLAGTGLFPPFPPVELPGGVGGLVARGGFAQTFFFPAEVLGLTFRTPKGRRVRAGGVVVKNVQGYDLVRLFVGSFGLLGRAEEVVLRLRPGRAQAFLRRPFSGSFPRLVPTPRFLFALEDEEGPWLYAYHFGHPKEVERFREAFGGEEARPLDLRPRFPRGLGLGEGPLWDLRFRYQDGGASPPPPPAFLRLARVL | soluble
